Here are results for ten molecules from publication PMC7739268 (Journal of molecular biology, 2016).

The chains are these.
B1: Recombinant human BMP-7 (ligand, UniProt P18075 293-431, looked up)
chain: STGSKQRSQNRSKTPKNQEALRMANVAENSSSDQRQACKKHELYVSFRDLGWQDWIIAPEGYAAYYCEGECAFPLNSYMNATNHAIVQTLVHFINPETVPKPCCAPTQLNAISVLYFDDSSNVILKKYRNMVVRACGCH
B2: Recombinant human Nodal (ligand, UniProt Q96S42 238-347, looked up)
chain: HHLPDRSQLCRKVKFQVDFNLIGWGSWIIYPKQYNAYRCEGECPNPVGEEFHPTNHAYIQSLLKRYQPHRVPSTCCAPVKTKPLSMLYVDNGRVLLDHHKDMIVEECGCL
B3: BMPRII-Fc (Fc fusion, human, UniProt Q13873 27-136, looked up)
chain: SQNQERLCAFKDPYQQDLGIGESRISHENGTILCSKGSTCYGLWEKSKGDINLVKQGCWSHIGDPQECHYEECVVTTTPPSIQNGTYRFCCCSTDLCNVNFTENFPPPDT
B4: wild-type Cerberus, Fc free (wtCer) (natural protein, human, UniProt O95813 18-267, looked up)
chain: TRHQDGRQNQSSLSPVLLPRNQRELPTGNHEEAEEKPDLFVAVPHLVATSPAGEGQRQREKMLSRFGRFWKKPEREMHPSRDSDSEPFPPGTQSLIQPIDGMKMEKSPLREEAKKFWHHFMFRKTPASQGVILPIKSHEVHWETCRTVPFSQTITHEGCEKVVVQNNLCFGKCGSVHFPGAAQHSHTSCSHCLPAKFTTMHLPLNCTELSSVIKVVMLVEECQCKVKTEHEDGHILHAGSQDSFIPGVSA
B5: mutant Cerberus, Fc free (mutCer) (natural protein, human, UniProt O95813 18-267, looked up)
chain: B4 chain with R65G, C189A
B6: Recombinant human Activin B (ligand, UniProt P09529 293-407, looked up)
chain: GLECDGRTNLCCRQQFFIDFRLIGWNDWIIAPTGYYGNYCEGSCPAYLAGVPGSASSFHTAVVNQYRMRGLNPGTVNSCCIPTKLSTMSMLYFDDEYNIVKRDVPNMIVEECGCA
B7: Recombinant human BMP-6 (ligand, UniProt P22004 375-513, looked up)
chain: SASSRRRQQSRNRSTQSQDVARVSSASDYNSSELKTACRKHELYVSFQDLGWQDWIIAPKGYAANYCDGECSFPLNAHMNATNHAIVQTLVHLMNPEYVPKPCCAPTKLNAISVLYFDDNSNVILKKYRNMVVRACGCH

Changes are numbered by the printed parent chain. Where two headings read alike, the source gives them in different places.

The target of series [1] is short-form Cerberus, Fc free (CerS) (human) (UniProt O95813). Briefly: cross-linking.
For series [2], the target named is Recombinant human Activin B (human) (UniProt P09529). Briefly: SPR.
Series [3] shares this target. Briefly: SPR. The source holds these as a separate data set.
Series [4] addresses short-form Cerberus Fc fusion protein (CerS-Fc) (human) (UniProt O95813). Briefly: SPR.
Series [5] addresses T1, wild-type Cerberus Fc fusion protein (wtCer-Fc) (human, UniProt O95813 18-267).
T1 sequence (looked up): B4 chain
Briefly: SPR.

Series [6] deals with T2, mutant Cerberus Fc fusion protein (mutCer-Fc) (human, UniProt O95813 18-267, Arg82Gly | Cys206Ala).
T2 sequence (looked up): B4 chain with R65G, C189A
Briefly: SPR.

In the series “BMPRII-Fc” the target is B3. Briefly: SPR.
Series [7] has as its target B6. Briefly: SPR.
Series [8] deals with B7. Briefly: SPR.
For series [9], the target named is B6. Briefly: SPR. The source holds these as a separate data set.
The target of series [10] is B7. Briefly: SPR. The source holds these as a separate data set.
Series [11] has as its target B6. Briefly: SPR. This is another data set of the same source.
Series [12] has as its target B7. Briefly: SPR. The source holds these as a separate data set.
The series “SEC” concerns the molecule itself. Briefly: SEC.

Consider “short-form Cerberus, Fc free (CerS) (from UniProt O95813 18-267) (domain or fragment)”, for which the stoichiometry N in series [1] was determined as 2. Also, the IC50 in series [2] was 28.4 nM. Further, in series [3], the IC50 is 261 nM and the percent reduction of Activin B binding to ActRIIA at 50 nM stood at 10%.

In series [4], “Recombinant human BMP-6 (from UniProt P22004 375-513) (ligand)” gave a Kd of 15.2 nM and a koff of 0.0012 s⁻¹.

For the molecule “Recombinant human BMP-7 (from UniProt P18075 293-431) (ligand)”, in series [4], the Kd amounted to 15.6 nM, the koff came to 0.0021 s⁻¹ and the kon was found to be 140000 M⁻¹ s⁻¹.

B1: in series [5], the Kd came to 17.3 ± 0.8 nM, the koff was 0.0028 s⁻¹ and the kon turned out to be 160000 M⁻¹ s⁻¹. In [6], this molecule displayed a Kd of 9.8 ± 0.9 nM, a koff of 0.0012 s⁻¹ and a kon of 130000 M⁻¹ s⁻¹.

With B2, the binding result in the series with BMPRII-Fc is recorded as “binds”.

With B3, the binding result (in series [7]; with Recombinant human BMP-6 [8]) was “binds” throughout.

Consider B4, for which the IC50 is 14.9 ± 4.2 nM in series [9], 156 ± 9.2 nM with Recombinant human BMP-6 [10], 26.2 ± 1.7 nM in [11] and 319 ± 53.4 nM with Recombinant human BMP-6 [12].

Turning to B5, the “stoichiometry N” value in the series “SEC” was 2. The IC50 in series [9] was 7.4 ± 1.1 nM; in the series with Recombinant human BMP-6 [10], 48.3 ± 3.5 nM; in series [11] it was 40.1 ± 2.5 nM; with Recombinant human BMP-6 [12], 350 ± 96.1 nM.

In series [5], B6 displayed a Kd of 0.096 ± 0.01 nM, a koff of 0.00022 s⁻¹ and a kon of 2.3e+06 M⁻¹ s⁻¹. Further, in [6], the Kd was found to be 0.016 ± 0.003 nM, the koff was found to be 3.1e-05 s⁻¹ and the on-rate (kon) was 2e+06 M⁻¹ s⁻¹.

In series [5], B7 displayed a Kd of 19.1 ± 2.5 nM, a koff of 0.0011 s⁻¹ and a kon of 55000 M⁻¹ s⁻¹. Also, in series [6], the Kd was 14.7 ± 3.6 nM, the koff was determined as 0.001 s⁻¹ and the kon stood at 70000 M⁻¹ s⁻¹.
